Columns and labels:
MEKK4 = molecular target: T1, MEKK4 (Mus musculus, UniProt O08648); experiment: GST pull-down, GST-Gadd45β beads with in vitro translated 35S-labeled MEKK4; assay type: binding, murine
T1 construct: plasmids encoding full-length (FL) human ASK1, MEKK4, JNKK1, and JNKK2; made in house; host or cells: TNT coupled reticulocyte lysate (Promega), in vitro transcription/translation from pBS
Procedure: (§1) To confirm the above interactions, in vitro, GST pull-down experiments were performed. pBluescript (pBS) plasmids encoding full-length (FL) human ASK1, MEKK4, JNKK1, and JNKK2, or polypeptides derived from the amino- or carboxy-terminal portions of ASK1 (i.e. N-ASK1, spanning from amino acids 1 to 756, and C-ASK1, spanning from amino acids 648 to 1375) were transcribed and translated in vitro using the TNT coupled retyculocyte lysate system (Promega) in the presence of ^35S-methionine. 5 μl of each translation mix were incubated, in vitro, with sepharose-4B beads that had been coated with either purified glutathione-S-transferase (GST) polypeptides or GST-Gadd45β proteins. The latter proteins contained FL murine Gadd45β directly fused to GST. Binding assays were performed according to standard procedures, and ^35S-labeled proteins that bound to beads, as well as 2 μl of each in vitro translation mix (input), were then resolved by SDS polyacrylamide gel electrophoresis. Asterisks indicate the intact translated products. […] Thus, GST pull-down experiments confirmed the strong interaction between Gadd45β and JNKK2 observed in vivo, as well as the weaker interactions of Gadd45β with other kinases in the JNK pathway. These assays also uncovered a weak association between Gadd45β and JNKK1. […]

JNKK1 = molecular target: T2, JNKK1 (Mus musculus, UniProt P47809); experiment: GST pull-down, GST-Gadd45β beads with in vitro translated 35S-labeled JNKK1; assay type: binding, murine
T2 construct: plasmids encoding full-length (FL) human ASK1, MEKK4, JNKK1, and JNKK2; made in house; host or cells: TNT coupled reticulocyte lysate (Promega), in vitro transcription/translation from pBS
T2 sequence (P47809 2-397): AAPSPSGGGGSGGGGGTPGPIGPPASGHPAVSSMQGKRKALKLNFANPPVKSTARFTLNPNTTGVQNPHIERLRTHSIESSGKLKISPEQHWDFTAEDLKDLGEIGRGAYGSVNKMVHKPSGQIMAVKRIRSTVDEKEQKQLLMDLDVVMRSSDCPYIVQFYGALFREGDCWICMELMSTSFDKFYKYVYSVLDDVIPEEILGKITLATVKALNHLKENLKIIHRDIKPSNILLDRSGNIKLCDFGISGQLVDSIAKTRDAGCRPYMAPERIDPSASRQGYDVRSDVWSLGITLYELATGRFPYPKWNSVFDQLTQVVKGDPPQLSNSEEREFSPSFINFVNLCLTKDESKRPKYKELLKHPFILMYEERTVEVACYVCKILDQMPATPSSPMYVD
Procedure: as §1

JNKK2 = molecular target: T3, JNKK2 (Homo sapiens, UniProt O14733, Q133P/Q94H); experiment: GST pull-down, GST-Gadd45β beads with in vitro translated 35S-labeled JNKK2; assay type: binding
T3 construct: plasmids encoding full-length (FL) human ASK1, MEKK4, JNKK1, and JNKK2; made in house; host or cells: TNT coupled reticulocyte lysate (Promega), in vitro transcription/translation from pBS
T3 sequence (O14733 1-401 Q94H/Q133P limits assumed): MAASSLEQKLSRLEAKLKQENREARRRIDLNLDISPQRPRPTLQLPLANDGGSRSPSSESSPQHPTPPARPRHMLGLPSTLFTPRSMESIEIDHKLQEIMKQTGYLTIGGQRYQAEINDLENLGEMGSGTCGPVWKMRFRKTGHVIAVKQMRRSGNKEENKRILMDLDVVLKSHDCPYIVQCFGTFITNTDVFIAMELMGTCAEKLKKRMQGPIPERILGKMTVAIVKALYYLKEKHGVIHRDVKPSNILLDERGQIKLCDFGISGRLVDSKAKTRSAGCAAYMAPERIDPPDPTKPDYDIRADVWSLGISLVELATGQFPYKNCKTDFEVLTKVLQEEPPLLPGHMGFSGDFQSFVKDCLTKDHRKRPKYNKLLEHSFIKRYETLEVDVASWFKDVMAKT
Procedure: as §1

T1 sequence (O08648 whole entry): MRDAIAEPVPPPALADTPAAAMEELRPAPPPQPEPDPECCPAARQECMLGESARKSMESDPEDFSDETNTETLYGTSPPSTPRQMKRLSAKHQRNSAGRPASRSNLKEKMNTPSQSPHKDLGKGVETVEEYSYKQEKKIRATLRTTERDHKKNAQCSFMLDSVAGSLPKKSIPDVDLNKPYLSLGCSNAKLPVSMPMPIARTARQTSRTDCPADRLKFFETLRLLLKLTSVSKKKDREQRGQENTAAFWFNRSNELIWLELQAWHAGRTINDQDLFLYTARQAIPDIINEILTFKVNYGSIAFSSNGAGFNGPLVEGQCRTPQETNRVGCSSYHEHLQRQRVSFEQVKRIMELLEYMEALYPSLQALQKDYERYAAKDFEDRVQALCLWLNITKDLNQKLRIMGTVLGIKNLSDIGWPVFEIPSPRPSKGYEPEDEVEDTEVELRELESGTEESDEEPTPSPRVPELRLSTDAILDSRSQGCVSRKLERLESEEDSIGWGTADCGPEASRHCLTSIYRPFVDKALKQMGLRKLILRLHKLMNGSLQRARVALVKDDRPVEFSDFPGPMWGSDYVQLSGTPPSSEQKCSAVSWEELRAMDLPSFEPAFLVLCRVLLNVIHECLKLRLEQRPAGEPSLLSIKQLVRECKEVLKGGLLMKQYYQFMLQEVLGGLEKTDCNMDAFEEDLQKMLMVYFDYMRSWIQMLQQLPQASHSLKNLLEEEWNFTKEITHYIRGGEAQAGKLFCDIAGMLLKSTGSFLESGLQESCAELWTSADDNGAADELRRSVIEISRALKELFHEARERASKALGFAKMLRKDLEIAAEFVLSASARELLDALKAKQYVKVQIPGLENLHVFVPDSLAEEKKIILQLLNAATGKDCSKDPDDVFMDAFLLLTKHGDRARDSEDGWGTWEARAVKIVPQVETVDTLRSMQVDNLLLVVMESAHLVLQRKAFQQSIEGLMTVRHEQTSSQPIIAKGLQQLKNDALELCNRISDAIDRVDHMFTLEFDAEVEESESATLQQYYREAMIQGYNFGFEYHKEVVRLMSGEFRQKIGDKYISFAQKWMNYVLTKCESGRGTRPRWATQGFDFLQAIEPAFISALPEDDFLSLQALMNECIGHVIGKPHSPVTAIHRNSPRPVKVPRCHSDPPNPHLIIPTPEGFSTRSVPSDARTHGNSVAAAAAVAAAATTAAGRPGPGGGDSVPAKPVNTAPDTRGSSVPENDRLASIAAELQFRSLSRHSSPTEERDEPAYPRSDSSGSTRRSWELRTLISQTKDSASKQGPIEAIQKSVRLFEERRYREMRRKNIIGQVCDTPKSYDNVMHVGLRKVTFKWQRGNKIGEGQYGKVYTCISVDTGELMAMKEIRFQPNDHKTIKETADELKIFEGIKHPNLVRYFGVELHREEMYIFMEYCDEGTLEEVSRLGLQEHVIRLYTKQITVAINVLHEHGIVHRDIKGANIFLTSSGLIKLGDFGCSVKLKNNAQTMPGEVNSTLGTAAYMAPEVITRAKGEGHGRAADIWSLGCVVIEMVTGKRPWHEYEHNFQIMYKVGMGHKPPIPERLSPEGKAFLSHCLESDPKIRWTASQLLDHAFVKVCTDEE

association with MEKK4 (MEKK4): less avidly than with JNKK2
association with JNKK1 (JNKK1): weakly
association with FL-JNKK2 (JNKK2): strongly associated
B1: GST-Gadd45β: full-length murine Gadd45β directly fused to GST, purified from E. coli (protein)
chain: MTLEELVASDNAVQKMQAVTAAVEQLLVAAQRQDRLTVGVYEAAKLMNVDPDSVVLCLLAIDEEEEDDIALQIHFTLIQSFCCDNDIDIVRVSGMQRLAQLLGEPAETLGTTEARDLHCLLVTNCHTDSWKSQGLVEVASYCEESRGNNQWVPYISLEER
modifications: left off: a dimerising Fc or GST
notes: full-length murine Gadd45β directly fused to GST, purified from E. coli

Reference: patent US7326418B2, “Identification of novel factors that block programmed cell death or apoptosis by targeting JNK” (University of Chicago, priority 2001, dated 2008)
